Data set [1] has as its target T1, VEGF 1 ZFP (NLS-ZFP-VP16-FLAG) (synthetic construct (SP1 backbone)).
T1 chain: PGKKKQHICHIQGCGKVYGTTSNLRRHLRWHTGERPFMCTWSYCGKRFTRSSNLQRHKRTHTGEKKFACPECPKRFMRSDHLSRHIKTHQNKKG
Nature of the data set: cell_activity; 293 cells, integrated reporter; 6 in Table 8.

Data set [2] deals with T1, VEGF 1 ZFP (NLS-ZFP-VP16-FLAG). Kind of data set: ChIP anti-FLAG, 293 cells, GAPDH-normalized; 8.3 in Table 7. How it is done: (§1) Immunoprecipitated DNA, obtained as described in Example 11, was used as template in a real-time amplification assay. Three DNA targets were assayed: the integrated reporter gene containing four tandem VEGF 3a/1 binding sites (pGL-VFR), the endogenous VEGF gene, and the endogenous glyceraldehyde phosphate dehydrogenase (GAPDH) gene (which was used as a control for nonspecific precipitation).
(§2) The values obtained for the endogenous VEGF gene (VEGF) and for the integrated reporter containing VEGF target sites (pGL-VFR), normalized to the values obtained for GAPDH, were then normalized to the values obtained for cells transfected with NVF, a construct that lacks a zinc finger DNA-binding domain, to obtain a value for the degree to which VEGF sequences were enriched in immunoprecipitates from cells transfected with a construct encoding a ZFP. […] Furthermore, sequences from an integrated reporter gene containing VEGF target sequences were enriched 170-fold by the VEGF 3a/1 protein and approximately 8-fold by the three-finger VEGF 1 protein.

The target in data set [3] is BOS 3 fusion (NLS-ZFP-KRAB-FLAG) (synthetic construct). Kind of data set: ChIP anti-FLAG, MCF-7 cells, amplicon 230 bp upstream of site. The conditions noted are these: tags: NLS, KRAB repression domain. How it is done: The sonicated lysate was centrifuged at 13,000 rpm for 10 min at 4° C., and the supernatant was recovered. 1.8 ml of ChIP buffer (16.7 mM Tris-Cl, pH 8.1, 1.2 mM EDTA, 167 mM NaCl, 1.1% Triton X-100, 0.01% SDS, 0.5 mM PMSF, 20 ug/ml aprotinin, 20 ug/ml pepstatin, 20 ug/ml leupeptin) was added to the cleared supernatant and 0.2 ml was removed as a pre-immunoprecipitation (pre-IP) input control. The input control sample was analyzed by agarose gel electrophoresis to verify that DNA fragments of 200-500 nucleotide pairs had been obtained.
BOS 3 fusion (NLS-ZFP-KRAB-FLAG) (synthetic construct), sequence (chain, as listed by the source): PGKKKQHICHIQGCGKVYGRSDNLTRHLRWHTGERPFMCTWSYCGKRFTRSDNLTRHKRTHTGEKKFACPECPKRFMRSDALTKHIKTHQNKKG
The remainder of the sonicated lysate was pre-cleared by adding 0.1 ml of a 50% slurry of Protein A agarose beads (also containing salmon sperm DNA at 200 ug/ml), followed by gentle agitation for 90 min. The lysate was separated from the beads by centrifugation at 1,000 xg for 5 min at 4° C. The cleared lysate was divided into two equal portions. […]
Immune complexes were eluted from the beads by washing them twice with 0.25 ml of 1% SDS, 0.1 M NaHCO₃. […] The purified DNA was analyzed by real-time quantitative PCR, an assay known colloquially as “Taqman®.” The DNA was analyzed for the relative proportion of two sequences: (1) a region located 230 nucleotide pairs upstream of the BOS 3 binding site, and (2) a control sequence from the 18S rRNA gene.

In data set [4] the target is T1, VEGF 1 ZFP (NLS-ZFP-VP16-FLAG). Kind of data set: ChIP anti-FLAG, 293 cells, GAPDH-normalized. How it is done:
as §1, §2

Data set [5] has the same target. Nature of the data set: cell_activity; 293 cells; VEGF protein 1.5; mRNA 2.7 and protein 3.1 in Table 9. The text has this:
Activation of the integrated luciferase reporter gene containing VEGF target sites and immunoprecipitation of reporter sequences by the VEGF 1 and VEGF 3a/1 proteins, as shown in examples 10 and 11, provided evidence that these exogenous ZFPs are binding to their target sites in cellular chromatin. To investigate this question further, the expression of the endogenous VEGF gene was examined in cells containing exogenous VEGF 1 and VEGF 3a/1 proteins. Accordingly, the same samples that were analyzed in Examples 10 and 11 were assayed for endogenous VEGF MRNA (by real-time PCR analysis using reverse transcriptase-mediated PCR) and for VEGF protein (by ELISA). […] The apparent activation of the endogenous VEGF gene by the GATA 15.5 ZFP is explained by the data obtained in Example 14, infra.
The production of mRNA and protein from the endogenous VEGF gene was assayed as described in Example 13, and the results are shown in Table 9. […] The activation of the endogenous VEGF gene by GATA 15.5 is consistent with the ability of this protein to immunoprecipitate endogenous VEGF sequences (Table 7).

B1: pGL-VFR integrated reporter, VEGF 3a/1 target (four tandem copies) (dsDNA)
DNA 1: GGGGAGGATCGCGGAGGCTT
DNA 2: AAGCCTCCGCGATCCTCCCC
In data set [1], B1 returned an activity of 2.7 fold luciferase vs NVF. Also, in data set [2], the binding signal worked out at 10.7 fold enrichment vs NVF.

B2: endogenous ER-alpha gene BOS 3 site, -2 kb hypersensitive region (dsDNA)
DNA 1: GGGGAGGAG
DNA 2: CTCCTCCCC
B2: the binding signal in data set [3] is ~20 fold enrichment vs cells without BOS3.

B3: endogenous VEGF-A gene target at +1 accessible region (dsDNA)
DNA 1: GGGGAGGATCGCGGAGGCTT
DNA 2: AAGCCTCCGCGATCCTCCCC
On to B3, for which the binding signal in data set [4] is 4.1 fold enrichment vs NVF. In data set [5], this molecule returned an activity of 3.2 fold VEGF mRNA vs NVF.

(Values after patent US20020064802, “Methods for binding an exogenous molecule to cellular chromatin” (published 2002).)
